Key:
[1] = pNCA enzyme activity assay, substrate 12-pNCA; type: biochemical
Protocol: (§1) For the pNCA activity assay use was made of 8 μl of a 10 mM pNCA solution in DMSO in a disposable cell in an end volume of 1 ml. After 850 μl of Tris/HCl buffer (0.1 M, pH 8.2) and 0.1 to 0.4 nmol P450 had been added to the pNCA/DMSO solution in question, the samples were preincubated for 5 minutes before the reaction was started by adding 50 μl of an aqueous solution of […]. To determine Kcat and Km, a concentration series was established for the various pNCA substrates (regarding details of the detection method, see (12)).
(§2) A 96-well plate (Greiner, Frickenhausen, Germany) was used for carrying out the pNCA test in a microtiter plate. In a total reaction volume of 250 μl in Tris/HCl buffer (0.1 M, pH 8.2), the reaction batch contained either 60 nmol 8-pNCA, 15 nmol 10-pNCA, 15 nmol 12-pNCA or 15 nmol 15-pNCA, in each case dissolved in 2.5 μl of DMSO. After the samples had been preincubated for 5 minutes with 40 μl of P450 BM-3 samples, the reaction was started by injecting, into each well, 30 μl of a 1 mM NADPH solution. Immediately after the NADPH solution had been added, the plates were measured in a plate reader at 405 nm.

[2] = from reference (12); cited from earlier work
[3] = pNCA enzyme activity assay, substrate 8-pNCA; type: biochemical
Protocol: as §1, §2

[4] = Hydroxylation of lauric acid with P450 BM-3 mutants, GC analysis of products; type: biochemical
Protocol: The following batch was chosen to hydroxylate the fatty acids in the presence of P450 BM-3 or its mutants:
Prior to the reaction, the enzyme lyophilisate was dissolved in 1 ml of reaction buffer and first incubated for 30 minutes at 36° C. Like the addition of 2% v/v acetone, the incubation leads to an increase in activity of 60 and 75%, respectively.
After 5 minutes' incubation, 500 μl of the previously prepared NADPH solution (12.5 mg/ml) were added. The course of the reaction is monitored by absorption measurements at 340 nm, and the consumption of NADPH can be observed. Theoretically 4 ml of NADPH solution would be required for a stoichiometric conversion, however, an unduly high NADPH concentration in the reaction solution results in inactivation of the enzyme, which is why the cofactor is added in 500 μl steps.
After the reaction had ended, the solution was acidified with 5M hydrochloric acid to a pH of 2. The fatty acids or hydroxylated fatty acids precipitate during this and result in a noticeable cloudiness of the solution. Thereafter, the mixture was extracted twice with in each case 10 ml of dichloromethane and dried over sodium sulfate. After filtration through a folded filter, the dichloromethane was removed on a rotary evaporator or by evaporation with nitrogen. The white solid which remained was taken up in 2 ml of dichloromethane and used in the GC analysis.
A Fisons gas chromatograph (Fisons Instruments Mega Series, Mainz, Germany) equipped with FID was used for the analysis (Optima 5-column, internal diameter 25 m×0.25 mm, Macherey & Nagel, Düren, Germany).
For analysis, starting materials and products were silylated with MSHFBA. During this, all hydroxyl and acid groups are converted into the corresponding trimethylsilyl ethers and esters, respectively. Care must be taken that the sample is anhydrous since otherwise side reactions with the silylating agent result. 15 μl of MSHFBA were pipetted into 10 μl of the hydroxy-fatty-acid-containing dichloromethane solution and the mixture was incubated for 15 minutes at room temperature. After 25 μl of dichloromethane had been added, the GC analysis was carried out.
To this end, 1 μl of the silylated samples were injected into the gas chromatograph. Injector and detector temperature were 350° C. The following temperature programmes were used:
To determine the reaction yields, gas chromatograms of standards were recorded. […] These ion fluxes are not proportional to the quantitative ratio of starting material and product. […] The empirical formulae of the standards and of the products are identical, and the structure only differs with regard to the position of the hydroxyl group, which is why approximately identical detectable ion fluxes can be assumed for identical quantities.

[5] = pNCA enzyme activity assay, substrate 15-pNCA; type: biochemical
Protocol: as §1, §2

[6] = pNCA enzyme activity assay, substrate 10-pNCA; type: biochemical
Protocol: as §1, §2

[7] = from reference (1); cited from earlier work

B1: WT: wild-type cytochrome P450 monooxygenase BM-3 from Bacillus megaterium, SEQ ID NO:2 (protein, listed as Bacillus megaterium)
chain: TIKEMPQPKTFGELKNLPLLNTDKPVQALMKIADELGEIFKFEAPGRVTRYLSSQRLIKEACDESRFDKNLSQALKFVRDFAGDGLFTSWTHEKNWKKAHNILLPSFSQQAMKGYHAMMVDIAVQLVQKWERLNADEHIEVPEDMTRLTLDTIGLCGFNYRFNSFYRDQPHPFITSMVRALDEAMNKLQRANPDDPAYDENKRQFQEDIKVMNDLVDKIIADRKASGEQSDDLLTHMLNGKDPETGEPLDDENIRYQIITFLIAGHETTSGLLSFALYFLVKNPHVLQKAAEEAARVLVDPVPSYKQVKQLKYVGMVLNEALRLWPTAPAFSLYAKEDTVLGGEYPLEKGDELMVLIPQLHRDKTIWGDDVEEFRPERFENPSAIPQHAFKPFGNGQRACIGQQFALHEATLVLGMMLKHFDFEDHTNYELDIKETLTLKPEGFVVKAKSKKIPLGGIPSPSTEQSAKKVRKKAENAHNTPLLVLYGSNMGTAEGTARDLADIAMSKGFAPQVATLDSHAGNLPREGAVLIVTASYNGHPPDNAKQFVDWLDQASADEVKGVRYSVFGCGDKNWATTYQKVPAFIDETLAAKGAENIADRGEADASDDFEGTYEEWREHMWSDVAAYFNLDIENSEDNKSTLSLQFVDSAADMPLAKMHGAFSTNVVASKELQQPGSARSTRHLEIELPKEASYQEGDHLGVIPRNYEGIVNRVTARFGLDASQQIRLEAEEEKLAHLPLAKTVSVEELLQYVELQDPVTRTQLRAMAAKTVCPPHKVELEALLEKQAYKEQVLAKRLTMLELLEKYPACEMKFSEFIALLPSIRPRYYSISSSPRVDEKQASITVSVVSGEAWSGYGEYKGIASNYLAELQEGDTITCFISTPQSEFTLPKDPETPLIMVGPGTGVAPFRGFVQARKQLKEQGQSLGEAHLYFGCRSPHEDYLYQEELENAQSEGIITLHTAFSRMPNQPKTYVQHVMEQDGKKLIELLDQGAHFYICGDGSQMAPAVEATLMKSYADVHQVSEADARLWLQQLEEKGRYAKDVWAG
In the case of B1, the Specific activity [1] is listed as 141 nmol/min/nmol P450, the “conversion of 12-pNCA (ω-hydroxylation)” value [2] is listed as 33% and the Specific activity [3] is listed as 15 nmol/min/nmol P450. The “positions in which the enzyme is active” value ([4]; lauric acid) was “only active in the positions w-1, w-2 and w-3”, the “Hydroxylation position ω-1, share of products” value ([4]; lauric acid (C12)) was 38% and the “Hydroxylation position ω-2, share of products” value ([4]; lauric acid (C12)) was 28%. The “Hydroxylation position ω-3, share of products” value ([4]; lauric acid (C12)) was 34%, the Specific activity [5] was 405 nmol/min/nmol P450 and the Specific activity [6] was 339 nmol/min/nmol P450. The “catalytic activity for fatty acids with a chain length of less than 12 carbon atoms” value [7] was “no catalytic activity”.
